From the DeepSol protein solubility set

Assay: soluble on expression in E. coli; label from the status in PepcDB or PDB records

Row | Sequence | soluble on expression in E. coli
1 | MLGPVLRLVVKAGKERKLRNFYPNLYRDEIAAPPEGVGVAEAVDAEGHFLAVGYYDPRSRVPFRAFRFDPGPLNRAFFQGRFARALRRRQGLGESHRLVHGEADGLPGLVVDRFGEVLVLQVRSRGMEALREVWLPALLEVVAPKGVYERSDVEARRQEGLPERVGVVYGEVPEVLEVEEDGLRFPIPLALAQKTGYYLDQRENRRLFEAMVRPGERVLDVYSYVGGFALRAARKGAYALAVDKDLEALGVLDQAALRLGLRVDIRHGEALPTLRGLEGPFHHVLLDPPTLVKRPEELPAMKRHLVDLVREALRLLAEEGFLWLSSCSYHLRLEDLLEVARRAAADLGRRLRVHRVTYQPEDHPWSLHIPESLYLKTLVLQDDPL | soluble
2 | MEKIFKVTSDSGIHARPATLLVNTASKFGSDINLEYNGKNVNLKSIMGVMSLGIQQNAEIKITANGDDAAQALAAIEETMKNEGLGE | not soluble
3 | GMPENTAMAALLPEESLFFRELVKQWRAQDSYGTWEKKSDMELLAPYVLDKEQRRAIPIIGDPDPEILWRVELFYNAVGLATERASGVMVSPMMKMSHEGFGRMVLIAGRLIVVNKQLRDVHRFGFPSMEKLAEEGDKLVAGALEMIEKFPEVARF | soluble
4 | MSLGRYCTDTEWTWFIPGKSPIKTDTIFREVAINGKTGLRTCHIDENTRFEVYEFWPSDLLRIFRRAGIQRHTPPFFEPGCALSGNSGISPQITSPQAGVSYIVHANTQSNKIIPLTAVTDAGIAHLYWFINESFVAETKSDEPYLWQAKPGKYVVRVVDDRGLSDARDITIQMVSEGHHHHHH | soluble
5 | MSLKVKSIKAITLSMPFSHGGKKVIFHGKEWKSLEFNLIRLETDKGIVGWGEAFGFSSWKAVRVAIEEMVAPMIIGKDMSNIPELLLNLQKSLHLFGRYGITMFAISGVEIALWDAFGKEKNKPVHELLGKKNNDIFKAYSSLFRYGDPKIIEQKCKQSLDDGYRAIKLHEIENNCIEAGRKGTGDLPMMLDTNCPWTYEQTLAKKDFLKSMNLTWLEEPIYPPEDYQTLAKLNKELGIPLACGENACTEYEFKSMIDHKAVSFVQPSVIKVGGIYEMFKIINIAEDKNISVMPHTAYFGPGFLATLQLAALMKKETYIERFYLDIDEEFYPNFKKALNGKYNLPKGPGLGIDLDYKRLSKYEIEGHHHHHH | soluble
6 | MGSDKIHHHHHHMKIFITGATGLIGSNLIPLLLEKEYQITALVRDMEKARHQLPNQVQLVKALSHYENFNDFDGVINLAGAPIFAQYWTAGYKTELINSRLNLTENLTALINNSNKPPHCFISASATGYYGDQGNNLITEKSLSGNQFTAQLCQQWENIALQANSRVCLLRTGMVFSEKGGALTKILPIYRYGVGGKLGTGKQFWAWISLQDMLQAILFLLENAQCEGAFNLVAPKPIQNKDFNCQLGAWLKRPYLATVPKFLLNLLLGERATLLLDSQNVIPQKLLEAGFHFSTPTFSDFLHSIKK | not soluble
7 | MEKNMRPYTVLWADDEIDLLKPHILFLEQKGYQVTPVLSGNDAIEAVQNNDFDIVFLDENMPGIGGLDALQKIKELKPYTPVVMITKSEEEHIMTQAIGGKIADYLIKPVNPNQLLLSLKKNLQQHSIISETTNTNYRQEFVQLGTQMSGKLSFEEWKELYRRIVFWEIELEQADRQMGELLEMQKQEANRLFARFVTQNYREWIAKPDTRPTMSPDLFKQKVFPLLDNGEKVFFILIDNFRQDQWESVKSMLSEFYTFEEDMYLSILPTATQYARNAIFSGLMPLQIEKMFPDLWVDEESEEGKNLNEEPMIRTLIERYRKHYSFSYNKVYETKFGERLLGQIRSLSQNQLNVIVLNFVDMMSHARTDSKMIRELASNEAAYRSLTKSWFKHSTTYNLFRSIAEMGYKVVLTTDHGTIQVKNPVKVIGDRSTNTNLRYKIGKNLDYNPKEVFEIKDPASVGLPHNNLSDKFIFTKEDDFFAYPNNYNYYVQYYRNTFQHGGISLEEMLVPVITMQPK | not soluble
8 | MMQFEVKDLINKIKKDGLEEAERASNDIILKAKREAEEIVARAEEAARVLKAKSEKEANDYKCHALEASRQAIRDLIIGVEKNLKSLFENALKDNVTEVLSDNNFLAELIIKITDSWAKGEKLVIQLNESDFSSLEQILRLKLGNKLKEGMELRPFRGISKGFKIQKKNIGLHYDFSAETIADILFDYLNPRFKEVIKVV | not soluble
9 | MLDLQISKKTVDPLKRPPHSVEAEQSIIGGLMLDNQVWDKVSNKLCETDFYRTEHRILFRAISALAKKDQPFDVVTLLDALKTRNELDDAGGEAYLFELANNTPSVANVTAYADIVREKSVQRQLIAVATEIADSAYNPAGREVPELLDMAETKVFAIGEQTASDGGPENIKSILVRAVEKIDALYHNGDAITGLATGLSDLDEMTSGLQPSDLIIVAGRPSMGKTTLVMNMAEHAAIKAGKPVLVFSMEMPADSLAMRMMSSLGRIDQHRIRTGKLDDNDWPRVTSAVHMLSEAPLFIDDTPALSPGEMRARARRLAKEHGSLGLIVVDYLQLMKVPGFNADNRTAEISEISRSLKSLAKELQVPVIALSQLNRSLEQRADKRPVMSDLRESGAIEQDADLICFIYRDEVYNEDSPDKGTAEIIVAKQRNGPIGKVRVAFLGKYTRFEDLAFNGYQGVE | not soluble
10 | MTDYDSLDDNAFRLMVREWIAANYPQRIRNPPRRLGREETREWYLLLSRQGWLCPGWPREYGGMGLSAGKQLIMMEEMEEYGCARLPDSGVTMLGPLLIRYGDEAQRARFLPRILSGEDIWCQGYSEPNAGSDLASLRTEARLENGEWVINGQKTWTTMGSEANWIFLLVRTERSAKAQHGISFLLVPMDSLGIEVRPILNLELHGEFCEVFFNDVRVPYDSLVGEINQGWSMAKALLGFERIFLGSPKQSTFALQRLERLARHLGLWHDPLFARRFAALSMDLDSHKALYERFAERLRRGESLGPEVSMLKIFQSELFQRISELGLEIAGEDSALLQPFAEDPELHPAGIFIQSRPTTIYGGSNEIQRNILAKSVLGLPG | not soluble
11 | MTIQHQFAENLSRLKKEHGLKNHQIAELLNVQTRTVAYYMSGETKPDIEKLIRLATYFHLSIDELVGYVQEDKVWNDLSLKQWLLSLNLRSEEEIAKIKILVDTVETLYPN | not soluble
12 | MDIIERITKLKNEKNAVILAHNYQPEEIQKIADIIGDSLELCIAARDTDADVIVFCGVDFMAETAKVLNSGKKVLIPEIIETDCPMAHQLPPEIILEAKKKNPDAKVVIYVNTLASAKALADATCTSANADKVVNSFEEDEILFGPDNNLGYFVSKRSNKKIIPMPEGGHCYVHKMFTLDDAKAVKEKYPNAELLIHPESDPKLQETADYVMSTGGMVKHVLNSECSEFIIGTECDMISRLKIELEKAGKSKKLIPLRTDAICKSMKNITLEKIEKCLLEEKHEIMLDEKIIENARKAIERMLSILEHHHHHH | not soluble
13 | MSLRSELPEGFFGPREWARLNAVADIIPGFPHTDFDTANGAEALAEADILLAAWGTPSLTRERLSRAPRLKMLAYAASSVRMVAPAEFWETSDILVTTAASAMAVPVAEFTYAAIIMCGKDVFRLRDEHRTERGTGVFGSRRGRSLPYLGNHARKVGIVGASRIGRLVMEMLARGTFEIAVYDPFLSAEEAASLGAKKAELDELLAWSDVVSLHAPILPETHHMIGARELALMADHAIFINTARGWLVDHDALLTEAISGRLRILIDTPEPEPLPTDSPFYDLPNVVLTPHIAGALGNELRALSDLAITEIERFVAGLAPLHPVHKQDMERMAEGHHHHHH | soluble
14 | MFPVNCYVLWDDTKEAVVIDPGCFYEEEKQALKKFILTNELTVKHLLNTHLHLDHIFGNPFMLKEFGLSAEANKADEFWIDEAPKQSRMFGFQLQEEPVPLGKYLHDGDIITFGHTKLEAIHVPGHSPGSLVYYCKEENCMFSGDVLFQGSIGRADLSGGNFDELIDHICSRLFVLPNETVVYPGHGAPTTIGMEKAENPFFR | not soluble
15 | MNFTRLLNQVLSTVQKKGNTFSDSPLNSFGGGALVAGVASMLLNGKNRKTITKIGSTAALGYLAYRGYQMWQQNKGRATVTQSDFQPAGETEETYSRTVLRTMIAAAASDGMIDEAERRTIEQESGTDPETAAWLAAEYRLPASIEDIAAAVGNDEALAAEAYLAARLVCADLSRKETVFLARLSQALKLDDNLVESLERQLGF | not soluble
16 | MRRTVRYILATSNPMGDLEALEKFVKLAPDTGADAIALIGNLMPKAAKSRDYAAFFRILSEAHLPTAYVPGPQDAPIWEYLREAANVELVHPEMRNVHETFTFWRGPYLVAGVGGEIADEGEPEEHEALRYPAWVAEYRLKALWELKDYPKIFLFHTMPYHKGLNEQGSHEVAHLIKTHNPLLVLVAGKGQKHEMLGASWVVVPGDLSEGEYSLLDLRARKLETGNVR | soluble
